Data on two molecules can be found in article PMC11221534, “A minimal RNA substrate with dual fluorescent probes enables rapid kinetics and provides insight into bacterial RNase P active site interactions”.

The target of series [1] is T1, E. coli RNase P holoenzyme, P RNA C70U (Escherichia coli, UniProt P0A7Y8 1-119).
T1 sequence: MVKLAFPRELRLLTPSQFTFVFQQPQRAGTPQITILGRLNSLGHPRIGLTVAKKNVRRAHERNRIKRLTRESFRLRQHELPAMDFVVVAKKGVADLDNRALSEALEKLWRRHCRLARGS
Description: single-turnover kinetics by PAGE (K'); 17.5 mM Mg2+; imprecise, very slow cleavage; 50 mM MES pH 6, 100 mM NaCl, 17.5 mM MgCl2 (or CaCl2), 0.015% Triton X-100 reduced, 37 C (PAGE single turnover); stopped-flow in similar buffer. The following applies: protein: recombinant; label: 5' Cy3 on strand 1; 12 bp continuous helix with one U-G wobble; 5' overhang 9 nt, 3' overhang 4 nt (GCCA).

The target of series [2] is T2, E. coli RNase P holoenzyme, P RNA U69A (Escherichia coli, UniProt P0A7Y8 1-119).
T2 sequence: T1 sequence
The description is as above. The following applies: protein: recombinant; label: 5' Cy3 on strand 1; 12 bp continuous helix with one U-G wobble; 5' overhang 9 nt, 3' overhang 4 nt (GCCA).

Series [3] deals with T3, E. coli RNase P holoenzyme (C5 protein + P RNA), wild type (Escherichia coli, UniProt P0A7Y8 1-119).
T3 sequence: T1 sequence
Description: single-turnover kinetics by PAGE (K' from kobs vs [E]); 17.5 mM Mg2+, pH 6; K' approximates Kd; 50 mM MES pH 6, 100 mM NaCl, 17.5 mM MgCl2 (or CaCl2), 0.015% Triton X-100 reduced, 37 C (PAGE single turnover); stopped-flow in similar buffer. Conditions: protein: recombinant; label: 5' Cy3 on strand 1; 12 bp continuous helix with one U-G wobble; 5' overhang 9 nt, 3' overhang 4 nt (GCCA).

Series [4] addresses T3, E. coli RNase P holoenzyme (C5 protein …). Description: stopped-flow 2Ap fluorescence, global fit (k-1/k1); 17.5 mM Mg2+; k1 0.43e6 M-1 s-1, k-1 0.084 s-1; 50 mM MES pH 6, 100 mM NaCl, 17.5 mM MgCl2 (or CaCl2), 0.015% Triton X-100 reduced, 37 C (PAGE single turnover); stopped-flow in similar buffer. The following applies: protein: recombinant; label: 2-aminopurine; 12 bp continuous helix with one U-G wobble; 5' overhang 9 nt, 3' overhang 4 nt (GCCA).

B1: 5'Cy3-MD1 (dsRNA)
RNA 1: ACCCAAAAUGGUCCGGGCGGG
RNA 2: CCCGUCCGGACCGCCA
modifications: 2-aminopurine at position 8 (N-2) as printed, written A; Table 1 appears to swap the Cy3 between 5'Cy3-MD1 and 5'Ap(-2)-MD1
On to B1, for which the Kd (as a rule, the constant that tells how readily two partners part at equilibrium) in series [1] was less than 250 nM; in series [2] it was less than 250 nM; in series [3], 189 nM.

B2: 5'Ap(-2)-MD1 (dsRNA)
RNA 1: ACCCAAAAUGGUCCGGGCGGG
RNA 2: CCCGUCCGGACCGCCA
modifications: 2-aminopurine at position 8 (N-2), written A; Table 1 prints a 5' Cy3 (apparently swapped with 5'Cy3-MD1)
Turning to B2, the Kd in series [4] is 195 nM.
